# Test results from patent publication US20250270304A1.
# T1: Inhibin A (Homo sapiens (Human)) (UniProt P05111)
# T1 sequence 1: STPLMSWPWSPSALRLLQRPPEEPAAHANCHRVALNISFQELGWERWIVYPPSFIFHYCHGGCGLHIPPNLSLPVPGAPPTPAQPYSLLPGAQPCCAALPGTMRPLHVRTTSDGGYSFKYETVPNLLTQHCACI
# T1 sequence 2: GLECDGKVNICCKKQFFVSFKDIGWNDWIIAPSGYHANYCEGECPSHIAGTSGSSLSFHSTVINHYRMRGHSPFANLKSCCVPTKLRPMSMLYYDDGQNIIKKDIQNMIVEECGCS
# T2: Activin B (Homo sapiens (Human)) (UniProt P09529)
# T2 sequence: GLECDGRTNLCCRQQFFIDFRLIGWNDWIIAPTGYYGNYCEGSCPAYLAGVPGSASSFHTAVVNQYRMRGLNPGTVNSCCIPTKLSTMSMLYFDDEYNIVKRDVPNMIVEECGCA
# B1: AB439 (antibody, IgG1, V domains shown)
# VH: EVQLVQSGAEVKKPGASVKVSCKASGYTYTGYRISWVRQAPGQGLEWMGWIDPKSGRTNYAQKLQGRGTMTTDPSTSTAYMELRSLRSDDTAVYYCAREVKQWLVPGRGVYWFDPWGQGTLVTVSS
# VL: ESALTQPASVSGSPGQSITISCTGTNIGLRSVSWYQQHPGKAPKLMIYDTNIRSSGVSNRFSGSKSGNTASLTISGLQAEDEADYYCSSYTSSSTDVFGGGTKLTVL
# B2: AB330 (antibody, IgG1, V domains shown)
# VH: QVQLVQSGAEVKKPGASVKVSCKVSGYPSPATISWVRQAPGKGLEWMGWMNPKSGYTNYAQKFQGRVTMTEDTSTDTAYMELSSLKSEDTAVYYCATLHGSGLAFDIWGQGTMVTVSS
# VL: DIQMTQSPSSVSASVGDRVTITCRASQDIKSDLAWYQQKPGKAPKLLIYRASARESGVPSRFSGSGSGTDFTLTISSLQPEDFANYYCQQYRSFPWSFGGGTKVEIK
# Legend:
# Test in all cases: ELISA, coated antigen, OD450
# [1] = target: T1, Inhibin A (Homo sapiens (Human))
# [2] = target: T2, Activin B (Homo sapiens (Human))
# [3] = target: Mature Activin A (human) (UniProt P08476)
Binder,fold-change of OD 450 over negative control (BSA) [1] [fold],fold-change of OD 450 over negative control (BSA) [2] [fold],fold-change of OD 450 over negative control (BSA) [3] [fold]
B1,1.38,1.17,–
B2,–,–,1.39
